Data from article doi:10.1101/2021.12.03.471045 (2021).

B1: Beta-55 mAb (IgG) (antibody, V domains shown)
VH: QVQLQESGPGLVKPSETLSLTCTVSGDSISSSRYYWGWIRQPPGKGLEWIGTFYYSGITYYNPSLKSRVTIFVDTSKNQFSLKLSSVTAADTAVYYCARPRPPDYYDNSGALLFDIWGQGTMVTVSS
VL: AIRMTQSPSTLSASVGDRVTIACRASQSISAWLAWYQQKPGKAPKLLIYKASSLESGVPSRFSGSGSGTEFTLTINSLQPDDFATYYCQQYISSSPWTFGQGTKVEIK
B2: EY6A mAb (IgG) (antibody, V domains shown)
VH: EVQLVESGGGVVQPGRSLRLSCAASAFTFSSYDMHWVRQAPGKGLEWVAVISYDGSNKYYADSVKGRFTISRDNSKNTLYLQMNSLRAEDTAVYYCAKDGGKLWVYYFDYWGQGTLVTVSS
VL: not shown

Assays:
[1] = biological target: T1, early pandemic (Wuhan) SARS-CoV-2 RBD (SARS-CoV-2, UniProt P0DTC2); test: SPR
[2] = biological target: T1, early pandemic (Wuhan) SARS-CoV-2 RBD; test: SPR; remark: listed apart in the source

| Binder | koff [1] [s⁻¹] | Kd [2] [pM] |
| --- | --- | --- |
| B1 | 0.00018 | 177 |
| B2 | 0.0048 | – |
